Test results: patent US20050170434

Molecular target: p38 MAPK, Q16539
Sequence (Q16539 2-360): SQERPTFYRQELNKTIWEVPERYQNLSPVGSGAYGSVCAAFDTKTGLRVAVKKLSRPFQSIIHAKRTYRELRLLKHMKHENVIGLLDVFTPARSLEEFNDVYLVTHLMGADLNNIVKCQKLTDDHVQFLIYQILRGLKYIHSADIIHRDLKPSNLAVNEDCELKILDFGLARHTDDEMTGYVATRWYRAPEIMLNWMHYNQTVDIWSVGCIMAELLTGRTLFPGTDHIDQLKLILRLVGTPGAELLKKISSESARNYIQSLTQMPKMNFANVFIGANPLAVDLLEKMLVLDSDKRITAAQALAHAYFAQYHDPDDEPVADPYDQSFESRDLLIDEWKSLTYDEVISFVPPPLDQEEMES

B1: MKK3b (WT) (protein)
chain: MESPASSQPASMPQSKGKSKRKKDLRISCMSKPPAPNPTPPRNLDSRTFITIGDRNFEVEADDLVTISELGRGAYGVVEKVRHAQSGTIMAVKRIRATVNSQEQKRLLMDLDINMRTVDCFYTVTFYGALFREGDVWICMELMDTSLDKFYRKVLDKNMTIPEDILGEIAVSIVRALEHLHSKLSVIHRDVKPSNVLINKEGHVKMCDFGISGYLVDSVAKTMDAGCKPYMAPERINPELNQKGYNVKSDVWSLGITMIEMAILRFPYESWGTPFQQLKQVVEEPSPQLPADRFSPEFVDFTAQCLRKNPAERMSYLELMEHPFFTLHKTKKTDIAAFVKEILGEDS
B1 was tested, and the “p38 phosphorylation (western blot using anti-phospho-p38 antibodies)” value was “in MKK3b (WT)-infected cells, the basal level of phosphorylated p38 protein dramatically increased compared with the basal level in cells infected with vector (TICD8)”.
